The values that follow come from US20170028070A1.

For the data set, the system named is HER2 epitope peptide. The conditions noted are these: 5'-H2N-(CH2)6; doxorubicin intercalated, Dox:aptamer 10:1; apparent Kd from doxorubicin fluorescence release upon epitope binding; Dox molar ratio 10.

pKd: −log10 of the molar value.

As a reminder, the pKd is the Kd on a negative log10 scale, so that one unit is a factor of ten. For the sequence “AACCGCCCAAATCCCTAAGAGTCTGCACTTGTCATTTTGTATATGTATTTGGTTTTTGGCTCTCACAGACACACTACACACGCACA [Dox-loaded anti-HER2 aptamer]”, the pKd is 7.30.
